Data as given in US9249224B2 (RINAT NEUROSCIENCE CORP., priority 2011, dated 2016).

Test system: ALS
Experiment: Serum ALS levels in cynomolgus monkeys after a single antibody dose
Assay type: in vivo, cynomolgus monkey
Description: To determine if GHR antagonist monoclonal antibodies can affect IGF-1, IGFBP-3, and ALS levels in vivo by inhibiting the function of GHR, the effect of humanized anti-human GHR antibody SS1 was tested in cynomolgus monkeys. A dose-response study was conducted to test for changes in IGF-1, IGFBP-3, and ALS levels following a single dose of SS1. Eight naïve female cynomolgus monkeys were injected intravenously with a single dose of SS1 or negative control human IgG2, in 1×PBS 0.01% Tween™ 20. Two monkeys were dosed with 30 mg/kg SS1, two were dosed with 10 mg/kg SS1, two were dosed with 3 mg/kg SS1, and two were dosed with 30 mg/kg negative control human IgG2Δa on Day 1. […] Serum was also taken from the 30 mg/kg SS1 and negative control treated animals at 864 h post-dose.
Serum samples were analyzed for changes in ALS levels compared to baseline using a BioVendor™ Human ALS ELISA kit (cat. #RMEE35R).
Six naïve female cynomolgus monkeys were injected either intravenously or subcutaneously with a single dose of […] or negative control human IgG2Δa in 1×PBS 0.01% Tween™ 20. Two monkeys were dosed with 3 mg/kg SS1 intravenously, two were dosed with 3 mg/kg SS1 subcutaneously, and two were dosed with 3 mg/kg negative control human IgG2Δa subcutaneously on Day 1. Serum samples were taken from all animals at the following timepoints: pre-dose, 24 h, 72 h, 120 h, 168 h, 216 h, 264 h, 312 h, 360 h, 408 h, 456 h and 504 h.

B1: SS1: humanized GHR antagonist antibody; VL SEQ ID NO: 7, VH SEQ ID NO: 8; hIgG2Δa heavy chain SEQ ID NO: 134, light chain SEQ ID NO: 135 (antibody)
heavy: EVQLVESGGGLVKPGGSLRLSCAASGFTFSDAWMDWVRQAPGKGLEWVAEIRSKANYHATYYAESVKGRFTISRDDSKNTLYLQMNSLKTEDTAVYYCTLIRDYWGQGTLVTVSSASTKGPSVFPLAPCSRSTSESTAALGCLVKDYFPEPVTVSWNSGALTSGVHTFPAVLQSSGLYSLSSVVTVPSSNFGTQTYTCNVDHKPSNTKVDKTVERKCCVECPPCPAPPVAGPSVFLFPPKPKDTLMISRTPEVTCVVVDVSHEDPEVQFNWYVDGVEVHNAKTKPREEQFNSTFRVVSVLTVVHQDWLNGKEYKCKVSNKGLPSSIEKTISKTKGQPREPQVYTLPPSREEMTKNQVSLTCLVKGFYPSDIAVEWESNGQPENNYKTTPPMLDSDGSFFLYSKLTVDKSRWQQGNVFSCSVMHEALHNHYTQKSLSLSPGK
light: EIVLTQSPGTLSLSPGERATLSCTATSSVSSSYLNWYQQKPGQAPRLLIYSTSNLASGIPDRFSGSGSGTDFTLTISRLEPEDFAVYYCHQYHRSTPTFGGGTKVEIKRTVAAPSVFIFPPSDEQLKSGTASVVCLLNNFYPREAKVQWKVDNALQSGNSQESVTEQDSKDSTYSLSSTLTLSKADYEKHKVYACEVTHQGLSSPVTKSFNRGEC
modifications: Humanized and/or affinity matured antibody sequence
serum ALS levels (% change from baseline) (Table 12, cynomolgus monkeys, SS1 3 mg/kg IV single dose, 24 h post-injection): −23.0 +/− 4.0% | serum ALS levels (% change from baseline) (Table 12, cynomolgus monkeys, SS1 3 mg/kg IV single dose, 48 h post-injection): −41.7 +/− 3.6% | serum ALS levels (% change from baseline) (Table 12, cynomolgus monkeys, SS1 3 mg/kg IV single dose, 72 h post-injection): −45.4 +/− 0.9% | serum ALS levels (% change from baseline) (Table 12, cynomolgus monkeys, SS1 3 mg/kg IV single dose, 96 h post-injection): −50.7 +/− 2.3% | serum ALS levels (% change from baseline) (Table 12, cynomolgus monkeys, SS1 3 mg/kg IV single dose, 120 h post-injection): −48.0 +/− 0.4% | serum ALS levels (% change from baseline) (Table 12, cynomolgus monkeys, SS1 3 mg/kg IV single dose, 144 h post-injection): −45.5 +/− 8.4% | serum ALS levels (% change from baseline) (Table 12, cynomolgus monkeys, SS1 3 mg/kg IV single dose, 192 h post-injection): −50.7 +/− 8.8% | serum ALS levels (% change from baseline) (Table 12, cynomolgus monkeys, SS1 3 mg/kg IV single dose, 312 h post-injection): −22.0 +/− 8.2% | serum ALS levels (% change from baseline) (Table 12, cynomolgus monkeys, SS1 3 mg/kg IV single dose, 336 h post-injection): −23.7 +/− 6.4% | serum ALS levels (% change from baseline) (Table 12, cynomolgus monkeys, SS1 10 mg/kg IV single dose, 24 h post-injection): 27.3 +/− 32.1% | serum ALS levels (% change from baseline) (Table 12, cynomolgus monkeys, SS1 10 mg/kg IV single dose, 48 h post-injection): −9.4 +/− 23.4% | serum ALS levels (% change from baseline) (Table 12, cynomolgus monkeys, SS1 10 mg/kg IV single dose, 72 h post-injection): −8.0 +/− 35.2% | serum ALS levels (% change from baseline) (Table 12, cynomolgus monkeys, SS1 10 mg/kg IV single dose, 96 h post-injection): −24.1 +/− 23.6% | serum ALS levels (% change from baseline) (Table 12, cynomolgus monkeys, SS1 10 mg/kg IV single dose, 120 h post-injection): −17.5 +/− 30.4% | serum ALS levels (% change from baseline) (Table 12, cynomolgus monkeys, SS1 10 mg/kg IV single dose, 144 h post-injection): −46.5 +/− 1.9% | serum ALS levels (% change from baseline) (Table 12, cynomolgus monkeys, SS1 10 mg/kg IV single dose, 192 h post-injection): −39.4 +/− 3.3% | serum ALS levels (% change from baseline) (Table 12, cynomolgus monkeys, SS1 10 mg/kg IV single dose, 312 h post-injection): −38.7 +/− 4.1% | serum ALS levels (% change from baseline) (Table 12, cynomolgus monkeys, SS1 10 mg/kg IV single dose, 336 h post-injection): −40.4 +/− 0.4% | serum ALS levels (% change from baseline) (Table 12, cynomolgus monkeys, SS1 30 mg/kg IV single dose, 24 h post-injection): 3.9 +/− 4.2% | serum ALS levels (% change from baseline) (Table 12, cynomolgus monkeys, SS1 30 mg/kg IV single dose, 48 h post-injection): −35.1 +/− 1.9% | serum ALS levels (% change from baseline) (Table 12, cynomolgus monkeys, SS1 30 mg/kg IV single dose, 72 h post-injection): −34.9 +/− 10.5% | serum ALS levels (% change from baseline) (Table 12, cynomolgus monkeys, SS1 30 mg/kg IV single dose, 96 h post-injection): −48.8 +/− 8.0% | serum ALS levels (% change from baseline) (Table 12, cynomolgus monkeys, SS1 30 mg/kg IV single dose, 120 h post-injection): −41.2 +/− 13.9% | serum ALS levels (% change from baseline) (Table 12, cynomolgus monkeys, SS1 30 mg/kg IV single dose, 144 h post-injection): −50.0 +/− 4.4% | serum ALS levels (% change from baseline) (Table 12, cynomolgus monkeys, SS1 30 mg/kg IV single dose, 192 h post-injection): −50.2 +/− 2.0% | serum ALS levels (% change from baseline) (Table 12, cynomolgus monkeys, SS1 30 mg/kg IV single dose, 312 h post-injection): −47.1 +/− 2.7% | serum ALS levels (% change from baseline) (Table 12, cynomolgus monkeys, SS1 30 mg/kg IV single dose, 336 h post-injection): −50.1 +/− 4.4% | serum ALS levels (% change from baseline) (Table 14, cynomolgus monkeys, SS1 3 mg/kg IV single dose, 24 hour post-injection): −4.5 +/− 4.6% | serum ALS levels (% change from baseline) (Table 14, cynomolgus monkeys, SS1 3 mg/kg IV single dose, 72 hour post-injection): −31.1 +/− 10.1% | serum ALS levels (% change from baseline) (Table 14, cynomolgus monkeys, SS1 3 mg/kg IV single dose, 120 hour post-injection): −37.5 +/− 9.4% | serum ALS levels (% change from baseline) (Table 14, cynomolgus monkeys, SS1 3 mg/kg IV single dose, 168 hour post-injection): −32.9 +/− 4.0% | serum ALS levels (% change from baseline) (Table 14, cynomolgus monkeys, SS1 3 mg/kg IV single dose, 264 hour post-injection): −9.3 +/− 2.5% | serum ALS levels (% change from baseline) (Table 14, cynomolgus monkeys, SS1 3 mg/kg IV single dose, 312 hour post-injection): −4.9 +/− 3.0% | serum ALS levels (% change from baseline) (Table 14, cynomolgus monkeys, SS1 3 mg/kg IV single dose, 360 hour post-injection): −9.7 +/− 9.6% | serum ALS levels (% change from baseline) (Table 14, cynomolgus monkeys, SS1 3 mg/kg SQ single dose, 24 hour post-injection): −15.9 +/− 0.2% | serum ALS levels (% change from baseline) (Table 14, cynomolgus monkeys, SS1 3 mg/kg SQ single dose, 72 hour post-injection): −42.7 +/− 0.5% | serum ALS levels (% change from baseline) (Table 14, cynomolgus monkeys, SS1 3 mg/kg SQ single dose, 120 hour post-injection): −41.1 +/− 7.1% | serum ALS levels (% change from baseline) (Table 14, cynomolgus monkeys, SS1 3 mg/kg SQ single dose, 168 hour post-injection): −33.7 +/− 6.5% | serum ALS levels (% change from baseline) (Table 14, cynomolgus monkeys, SS1 3 mg/kg SQ single dose, 264 hour post-injection): −16.5 +/− 13.2% | serum ALS levels (% change from baseline) (Table 14, cynomolgus monkeys, SS1 3 mg/kg SQ single dose, 312 hour post-injection): −5.0 +/− 13.6% | serum ALS levels (% change from baseline) (Table 14, cynomolgus monkeys, SS1 3 mg/kg SQ single dose, 360 hour post-injection): −10.0 +/− 10.2%
